Data set [1] deals with CaCo2 lysosome (lysosomal cathepsins). Kind of data set: Phage infectivity after incubation with CaCo2 lysosomal extract. The format is biochemical. Particulars: 30 min. incubation at 37° C., n=3. As for the experimental part:
(§1) Subcellular fractionation: cytosolic and endosomal extraction are prepared according to manufactures' protocols from ThermoFisher Scientific (Cat. No. 89842) and Invent Biotechnologies (Cat. No. #ED-028), respectively. The starting cell number is 5×10^6 cells for one cytosolic extraction, and 3×10^7 cells for one endosome extraction. Lysosomal isolation from different cell types are optimized based on an Abcam kit (Cat. No. ab234047) for homogenization step and increased isolation scale. The starting cell number for one lysosomal isolation is 2×10^8 cells.
(§2) Ten rounds of overnight phage culture described above are grown to evaluate substrate sequence retention for each phage clone. Sanger sequencing is performed after each round of phage culture to confirm the substrate insertion. Final phage clones with the substrate insertion are then evaluated for cathepsin accessibility by incubation with lysosomal extract from different mammalian cell lines.
(§3) The accessibility of clone A1 and H4 to active cathepsins is further assessed in lysosomal extracts from CaCo2 and HEK293 cells in addition to CHO cells. […] (see, FIG. 3). CaCo2 lysosome: clone A1 (mean=79.83%, SEM=9.5%) vs. H4 (mean=34.63%, SEM=13.5%), p=0.22, n=3. HEK293 lysosome: clone A1 (mean=75.1%, SEM=9.7%) vs. H4 (mean=9.5%, SEM=1.6%), p=0.018, n=3. […]

Data set [2] concerns HEK293 lysosome (lysosomal cathepsins). Kind of data set: Phage infectivity after incubation with HEK293 lysosomal extract. Type of data set: biochemical. Conditions: 30 min. incubation at 37° C., n=3. The method, then: as §1, §2, §3
In data set [3] the test system is CHO cell lysosomal extracts (active cathepsins). Briefly: Phage infectivity after incubation with CHO cell lysosomal extract. The format is biochemical, Chinese hamster. The method, then: as §1, §2
The accessibility of the engineered GS2 linker of the 18 phage clones to active cathepsins (confirmed by fluorogenic cleaving assay) is assessed by incubating phage clones with CHO cell lysosomal extracts at 37° C. The assessment is repeated 4 times with independently isolated lysosome under acidic environment (about pH 5). […] (as shown in the representative graph in FIG. 2).
The accessibility of clone A1 and H4 to active cathepsins is further assessed in lysosomal extracts from CaCo2 and HEK293 cells in addition to CHO cells. […] (see, FIG. 3). CaCo2 lysosome: clone A1 (mean=79.83%, SEM=9.5%) vs. H4 (mean=34.63%, SEM=13.5%), p=0.22, n=3. HEK293 lysosome: clone A1 (mean=75.1%, SEM=9.7%) vs. H4 (mean=9.5%, SEM=1.6%), p=0.018, n=3. CHO lysosome: clone A1 (mean=95.58%, SEM=13.8%) vs. H4 (mean=2.738%, SEM=0.8%), p<0.0001, n=6.

B1: H4: engineered M13 IX104 phage clone with FLVIR cathepsin substrate copies in pIII GS2 linker (nucleic acid)
DNA: GCTGAAACTGTTGAAAGTTGTTTAGCAAAATCCCATACAGAAAATTCATTTACTAACGTCTGGAAAGACGACAAAACTTTAGATCGTTACGCTAACTATGAGGGCTGTCTGTGGAATGCTACAGGCGTTGTAGTTTGTACTGGTGACGAAACTCAGTGTTACGGTACATGGGTTCCTATTGGGCTTGCTATCCCTGAAAATGAGGGTGGTGGCTCTGAGGGTGGCGGTTCTGAGGGTGGCGGTTCTGAGGGTGGCGGTACTAAACCTCCTGAGTACGGTGATACACCTATTCCGGGCTATACTTATATCAACCCTCTCGACGGCACTTATCCGCCTGGTACTGAGCAAAACCCCGCTAATCCTAATCCTTCTCTTGAGGAGTCTCAGCCTCTTAATACTTTCATGTTTCAGAATAATAGGTTCCGAAATAGGCAGGGGGCATTAACTGTTTATACGGGCACTGTTACTCAAGGCACTGACCCCGTTAAAACTTATTACCAGTACACTCCTGTATCATCAAAAGCCATGTATGACGCTTACTGGAACGGTAAATTCAGAGACTGCGCTTTCCATTCTGGCTTTAATGAGGATTTATTTGTTTGTGAATATCAAGGCCAATCGTCTGACCTGCCTCAACCTCCTGTCAATGCTGGCGGCGGCTCTTTTTTAGTTATTAGAGGTGGTGGTTCTGGTGGCGGCTCTGAGGGTGGTGGCTCTGAGTTTTTAGTTATTAGAGGTGGCGGTTCTGAGGGTGGCGGCTCTGAGGGAGGCGGTTCCGGTGGTGGCTCTGGTTCCGGTGATTTTGATTATGAAAAGATGGCAAACGCTAATAAGGGGGCTATGACCGAAAATGCCGATGAAAACGCGCTACAGTCTGACGCTAAAGGCAAACTTGATTCTGTCGCTACTGATTACGGTGCTGCTATCGATGGTTTCATTGGTGACGTTTCCGGCCTTGCTAATGGTAATGGTGCTACTGGTGATTTTGCTGGCTCTAATTCCCAAATGGCTCAAGTCGGTGACGGTGATAATTCACCTTTAATGAATAATTTCCGTCAATATTTACCTTCCCTCCCTCAATCGGTTGAATGTCGCCCTTTTGTCTTTAGCGCTGGTAAACCATATGAATTTTCTATTGATTGTGACAAAATAAACTTATTCCGTGGTGTCTTTGCGTTTCTTTTATATGTTGCCACCTTTATGTATGTATTTTCTACGTTTGCTAACATACTGCGTAATAAGGAGTCT
Turning to B1, the “infectivity (mean)” value in data set [1] is 34.63%; in data set [2] it was 9.5%; in data set [3] (CHO lysosomal extract, 37° C., about pH 5, n=4), 2%; in data set [3] (CHO lysosome, 30 min. incubation at 37° C., n=6), 2.738%. This molecule also came in with an infectivity reduction in data set [3] (CHO lysosomal extract, 37° C., about pH 5) of 9800.

The values above are taken from patent US20250163404A1, “PHAGE DISPLAY-BASED CELL-PENETRATING PEPTIDE DISCOVERY PLATFORM AND METHODS OF MAKING AND USING THE SAME” (Eli Lilly and Company, priority 2022, published 2025).
